Test: soluble on expression in E. coli; label from the status in PepcDB or PDB records

Sequence	soluble on expression in E. coli
LSGMTGNQSPAALMSSNIDLLDAITPNVRDALTALFANIACYVLGSIWFRAGVAERIQASAFVSPGKLKNNASKKSGPISQQDLLILASRFVSPTRAYESFSRFSTEAVKSDSWHKAATPELIAHTERLLAGVLGASSASLVMDSVLQGRDLALDEVFSLVDEASSKIMLSQDMLRGAIEHAYEGMSVIDSDLNLVAWNYKYVELYQYPEGFLQQGMPISEVI	not soluble
MGSDKIHHHHHHMQFEMHDHVKGKAMSYPVTSQPQCANTCYQTQLSDWHTGLTDCCNDMPVCLCGTFAPLCLACRISDDFGECCCAPYLPGGLHSLRTGMRERYHIQGSVGHDWAALTFCLPCALCQMARELKIRE	not soluble
MSLAETWDMPLAYSGSNFHSVTAAEFGNCVTTGTGGEIEIVTHPSGSLFKGADIKRAVQTGQAPIGERLLSGHQNENALFGFDSVPFLATSFDDADKLWKAAKEPLSALLAEQNLTLLYSVPWPPQGLYFKNEVNAVADMKGIKFRSYNNATSRLAELTGMLPVTIEAAEISQAFATGVADSMISSGSTGYDRKVWESLNYFYEVDAWLPRNYVFVNSDVWSGVSDQNKNVIQACAGLAEYAGNWRSKEYTGFTLQGLRDGGMTVGPASDQLVGELKEIGVTMTSEWLEAAGDQGKAIVDAFKAEGHHHHHH	not soluble
GPGSMERVTYARTGALRSTYAGLPVTKERLVTAAPAKWFPLLTTVPQRVLKSISDSDGVDGSLLGFLPIAFVFEELRKHLSDFTQHAAFLRAVLQWYHQTAGDTLESEIATDKVEIFQPYLPAYRLRVLKEGETVATFNDISRRAVTLMGKDRGINDIPLDHPSCSAQHAALEVNFVHRNSEPFQQRLHTLMQEEYRNINWSSPDEVGKLCAHALQLMREFGGDEDMWLMELQVVDLGSTNGTNLNGELLRPLERATVIEGDVLTFGYSTRKYLIVRA	soluble
MSLGGTMVFRPVDVPGGAVFADQKITLGGGSPDRAFIENAHPDYLSGSFAEKNAWRYYIAKYELTAAQYAAIAGPCPDASKMDLWLPKVGITPGEATVAAESYSAWLFANARKSLPGDGKAPGFVRLPTEAEWEYAARGGAKVGPSDFDARHPPMDGPESGAIWYDGPESADKELQLVGLLAANPLGLHDMLGNAAELVQDLFRLNRVGRPHGRAGAFVKRGGDYRTPLAEIHSGLRQEFDLFDAKGLRREATTGTRFVLAAAALPSRDRLEALRQGWTALTEQSHSPLAEQQSDPRAELKTLSEFTSQLDFPEKAEVKRRLLNLAGVIDANIASRNEERDRAAREMLRVAVFAAGQLPTALDNAERCGKLMALNAAQYKERCDRVQADSKFDSQYYLDHVTRMLAEFPVPILEGQLGTLGSDLHAQGMLDAEGRVDHVFSDLKTLQAKGATAHKGILGGWKGREGHHHHHH	not soluble
MYSDDLLLEEDSADESSLANAFSRGMQLGSTDASSYSRRFNSNASTSSSNPTTQRRYAPNQAFSQVETGSPPSNDPHARFGQHIPGSQYIPHVSQNSPSRLGQQPPQRYNHGRPNAGRTMDRNHMNAQLPPSNTNSGGQQRSPRSSSYTNGVPWGRRTNNHVPNVPSTSHGRVDYGSIA	soluble
MVEQTTSEPAAGSMPKISFGVKKREENKVQAPAKAVVIEVDLDSDEEREKNEMERAAKRRKVMHFEDGTVQGDIDKPKEAAVIPMVVEHDWRTQKLIEKEKAGTLTEEERAKLALVLPNGIDGENEEESGKGEKIVVEDGRGDTEDADYSAIPIESFGLAILRGCNWKDGDGIGKNPQKVALKLPNRRPPGLGLGATPKNPVGKNKNTGESSKAEEEKLEEIKVGSFIKVVDGRNKGVYGKVEGRDDDSNSLFIRTAIGGKTMKVSQIVAVAVSAKEYERDSKCLNKSEYDKEKDRLETERKKLESQPPSTSTSQSSKDYKSKSSSSKHDKNSSEYERNDKMWARTDLLVRFIDEDFKRGSLYEQKVRIVDVAGDNDVTIEDDRGNTHYNIRQSWLETVIPREIGEKLMIVAGKRSGQLAVMLDKDKRKEKVTARLVATNDVVTAYFEDVCSVKIRHEEDYE	not soluble
SFRDCAEVFKSGHTTNGIYTLTFPNSTEEIKAYCDMEAGGGGWTIIQRREDGSVDFQRTWKEYKVGFGNPSGEYWLGNEFVSQLTNQQRYVLKIHLKDWEGNEAYSLYEHFYLSSEELNYRIHLKGLTGTAGKISSISQPGNDFSTKDGDNDKCICKCSQMLTGGWWFDACGPSNLNGMYYPQRQNTNKANGIKWAAWKGSGYSLKATTMMIRPADF	soluble
MGSDKIHHHHHHMAIVNRIALDLAKDFIQVLALDENEQEVFNKKLRSNKVLAKLATLSRTDDCEVAVESCGMSHYWRRECEKLGYKTVALPPRFVKAYLQGEKNDANDARAIAEAASRPNRQTVRLKSIEQQDLALMVNQREGFVQTRTQFSNRLRGQLAEYGILLPKRVGTILQRVPEVLEDDSNALTLQSRDLINRLYQMLRAVDEEVKALDKHLATQAERNEDSQRLMTLPGIGPITATSLLALIGDVSEFKRGRNLSEYLGLVPRQNSSGGKDRLGGITKKGNTKLRTLLVHGARSALRVAQQRHDRLSLWAQDVAKRRGNNVAAVALANKHARIIWAMLKNKEDYRMTAA	not soluble
MAEHRGGSGNFAENREKASEAGRKGGQHSGGNFKNDPQRASEAGKKGGQNSHGGRKSDNS	not soluble
MGSDKIHHHHHHMIPISLIQETAEGLMDKAAIEIPQDYLDGLQEAARTEDGDLSSFVLKAMLDNYEAAKEDRRAMCGDTGVPRWFVKMGNDASVEGGMVALEAALRRATANATNGVPLRPNRVHPLWRTDHNNNVGIGAPEIEYGFEPEGEWIDLITVHKGGLFGTDYRMLFPSDGLQGIKRFYLDSLMAFGKRGLACQPAIIGIGLGGSKDICMTLGKRASTLRVVGSRNSDPRIAEMEDEFKALGNSIGMGAMGFVGKNMVIDCNIEVGYCHTGGLPMSVHAFCLSSRRAVARIHADGRVEHRTDPDWFTDYQRRETIDWPLAQEAAE	not soluble
MSLAEFIYTMKKVRKAHGDKVILDDVTLSFYPGAKIGVVGPNGAGKSSVLRIMAGLDKPNNGDAFLATGATVGILQQEPPLNEDKTVRGNVEEGMGDIKIKLDRFNEVAELMATDYTDELMEEMGRLQEELDHADAWDLDAQLEQAMDALRCPPADEPVTNLSGGERRRVALCKLLLSKPDLLLLDEPTNHLDAESVQWLEQHLASYPGAILAVTHDRYFLDNVAEWILELDRGRAYPYEGNYSTYLEKKAERLAVQGRKDAKLQKRLTEELAWVRSGAKARQAKSKARLQRYEEMAAEAEKTRKLDFEEIQIPVGPRLGNVVVEVDHLDKGYDGRALIKDLSFSLPRNGIVGVIGPNGVGKTTLFKTIVGLETPDSGSVKVGETVKLSYVDQARAGIDPRKTVWEVVSDGLDYIQVGQTEVPSRAYVSAFGFKGPDQQKPAGVLSGGERNRLNLALTLKQGGNLILLDEPTNDLDVETLGSLENALLNFPGCAVVISHDRWFLDRTCTHILAWEGDDDNEGHHHHHH	not soluble
MSLKFIVKPHPEIFVKSESVRKRFTKILESNIRIIVKARTQGVAVFNRRDHIEVTSNSDTYYAEVLEILTTTPGIQQVLEVQQSSFTDLHNIYEQVLELNRANLENKTFVVRAKRRGKHDFTSIELERYVGGGLNQAIASAKVKLINPDVTVQVEVVDELLNQVIARHKGLGGFPLGTQEDVLSLISGGFDSGVSSYLHIKRGSKVHYCFFNLGGPAHEIGVKQTAYYLWQKYGSSAKVRFIAIDFAPVVAEILEKIDDGQMGVVLKRMFMRTAGMVAEKFGIQALVTGEALGQVSSQTLTNLRHIDNVTDTLILRPLINWDKEDIIRLAREIGTEDFAKTMPEFCGVISKSPTVKAVKEKLEEEEAKFDFALLDQVVYNARQIDIRDIGKEGHHHHHH	soluble
MGSSHHHHHHSSGLEVLFQGPLHMRTQGIKPRIREILSKELPEELVKLLPKRWVRIGDVLLLPLRPELEPYKHRIAEVYAEVLGVKTVLRKGHIHGETRKPDYELLYGSDTVTVHVENGIKYKLDVAKIMFSPANVKERVRMAKVAKPDELVVDMFAGIGHLSLPIAVYGKAKVIAIEKDPYTFKFLVENIHLNKVEDRMSAYNMDNRDFPGENIADRILMGYVVRTHEFIPKALSIAKDGAIIHYHNTVPEKLMPREPFETFKRITKEYGYDVEKLNELKIKRYAPGVWHVVLDLRVFKS	soluble
GPGSMQPRKTVKKVDVEPSPEEDAELLPHLKVSAKWSERAANNGKSLSQVQFLLGALGKQLEDCNKELASVYANADLLSSLRITEYRQRNTPGGLLTPTRKARTKRNASTRPVARQQLDENSTEALIAAMDEKKRARVTAALIAFFKRDMQEQNSPAYQNASTPVPQGANHSSTRTSQTLGRIPSANSHTMLCESNKGNQPSCSNGNELPTLLSETQQQQLRRHRDIPPELWDEMAKLRLRRLSLEEKIGSLLSNINAQTERFGLLMEVQGVNSYSTESVNRAIEMIRQKRA	soluble
MGAIQFQTAPKLPVTVLLAAKNEAVNLPRCLAALGPAERVIVLDSHSTDATAEIARQHGAEVAQFDYRGGYPKKRQWALDTIPFGTPWILLLDADEVVPEDLWKEIGNVTRQPDADAYLITKGFHFLGRKFKHGGFSHSAVLLFKTGMARFEKLFDDDLNGLDMEIHERVVVDGRIGKLKTPLVHEDFKGLEAYITRHNKYSTWEAKVRHHYLTTGRYGEQTIKPRLFGNSQERRRFLKALIIRLPFEPQIWFIYHYLLRLGFLEGRPGLIASQIRAAYIAQARAKIYELRLNTPSRLEHHHHHH	not soluble
MATSMIQRLFKQGTKIVGVGLNYASHAKELGNALPKDPIVFLKPTSSYLENGGTIEIPHPLDSLHHEVELAVVIGQKARDVPERLAMNYIGGYALALDMTARELQVSAMASGLPCTLAKGQDTFTPISSVLPKAMVLDPNNLELWLKVDDETRQKGWTKDMIFKVPYLISYISSVMTLFKGDVILTGTPEGIGPVKIGQKITAGITGLSEVQFDVGRRLKPLLR	soluble
MMISLYSAATGMSAQQFKLDTIANNLANVDTTGYKKVRAEFQDLLYQYVKNAGTPTAATSSLPTGLYVGHGVRTAATTRIFTLGNFEQTGNALDLAIAGDGFFQIQLQDGRIAYTRDGSFKMDSEGRIVTSNGLLLVPEITIPENAVSINVSPDGIVSAELQDGTIQELGTITLVRFVNPSGLKSIGDNLYIATPASGDPIEGVPGQDGFGAIKQGFLEKSNVDVVREMVDMITAQRAYEFNSRVIQTADEMLRTATNVKR	soluble
MMIVGCYCMNKLVFCLMGPTASGKTGLACELLTHFPFEIISVDSAMIYRDMNIGTAKPSIHELQRAPHYLIDIKDPVESYSAAQFCTDALSLCAEIIKRGNIPLLVGGTMMYFNALQKGLATLPEADEAVRKRLEEEALSQGWDFLYQKLSQLDPVTAARIHAHDTQRIQRALEVYYLTGSTLSTYLTGPHERPDYYFVNLALFPEQRSWLHERIAQRFDAMLSEGFIEEVQQLQAKWPIQINLPSMRCVGYRQILQHLAGHYDYETMREKGIAATRQLAKRQLTWLRHWEGALFYDSQNVGFNTDIIAKIREILDNTVSNLEHHHHHH	not soluble
MMINRINLTDIRSFVLIARLGNFTKAAETLDVSRSHVSRQISSLEKQMGVTLLIRTTRTLRLTEAGKHFYHQCEQALHTIDQALLSAVDDVEKVQGEIKINCVGGYLGEVFLADIVNTFMQQYPDVSISLDFSSNRVDLIEEEFDIAFRMGSLEDSGFVAKKLLDIEMGTLASPKYLQQYGRPSHPKELQQHHCLTGSVRKWHFQSLVNKEHYDVSIKGNLQCKNGRVLVAGAIAGNGIIRVPLIYCQQELDDKKLVQVFEEWGIPTVDFSAIYHRDRYQPKRIRTFIDFVKQYSDSLFT	not soluble

Reference: the DeepSol protein solubility set
